Experimental data as given in US20230374083A1.

Tests used:
[1] = target: trastuzumab; test: cell-based or functional assay
[2] = target: IgG1 in the sera of mice
[3] = target: IgG1 in the sera of humans
[4] = target: human IVIg (an intravenous human immunoglobulin)

## IdeE A59L (enzyme)
[1]
  cleavage of human IgG1, SDS-PAGE of cleavage products (fold of wild-type IdeE): > 2

## IdeE A59V (enzyme)
[1]
  cleavage of human IgG1, SDS-PAGE of cleavage products (fold of wild-type IdeE): > 2

## IdeE E97D (enzyme)
[1]
  cleavage of human IgG1, SDS-PAGE of cleavage products (fold of wild-type IdeE): > 2

## IdeE R280H (enzyme)
[1]
  cleavage of human IgG1, SDS-PAGE of cleavage products (fold of wild-type IdeE): > 2

## IdeE T8D (enzyme)
[1]
  cleavage of human IgG1, SDS-PAGE of cleavage products (fold of wild-type IdeE): > 2

## IdeE T8W (enzyme)
[1]
  cleavage of human IgG1, SDS-PAGE of cleavage products (fold of wild-type IdeE): > 2

## IdeE T24A (enzyme)
[1]
  cleavage of human IgG1, SDS-PAGE of cleavage products (fold of wild-type IdeE): > 2

B1: E97D_del18 (protein)
chain: MITSVWTKGVTPLTPEQFRYNNEDVIHAPYLAHQGWYDITKAFDGKDNLLCGAATAGNMLHWWFDQNKTEIEAYLSKHPDKQKIIFNNQELFDLKAAIDTKDSQTNSQLFNYFRDKAFPNLSARQLGVMPDLVLDMFINGYYLNVFKTQSTDVNRPYQDKDKRGGIFDAVFTRGDQTTLLTARHDLKNKGLNDISTIIKQELTEGRALALSHTYANVSISHVINLWGADFNAEGNLEAIYVTDSDANASIGMKKYFVGINAHRHVAISAKKIEGENIGAQVLGLFTLSSGKDIWQKLSHHHHHH
[2]
  cleavage of serum IgG in vitro, reducing SDS-PAGE (25 kD Fc fragment): has very low or no activity of cleaving IgG1 in the sera of mice
[3]
  cleavage of serum IgG in vitro, reducing SDS-PAGE (25 kD Fc fragment): E97D_del18 can effectively and specifically cleave IgG1 in the sera of humans
[4]
  cleavage of human IVIg in mouse serum or plasma in vitro, non-reducing SDS-PAGE: E97D_del18 can effectively cleave human IVIg in both the sera and plasmas of mice
